No end group written: not given here.
Molecular target: T1, NCK2 full-length recombinant protein (mouse, WT, tag-free) (mouse, UniProt O55033 1-380)
T1 construct: NCK2, mouse, full-length recombinant; also called WT NCK2; NCK2 1|2|3; source: E. coli BL21 (DE3), purified (GSTrap, TEV cleavage, HisTrap)
Test: fluorescence polarisation; 40 nM fluorescein isothiocyanate-conjugated peptide, NCK2 titrated (0-150 μM for CD3ε, 0-175 μM for PAK1); 17 mM Tris-HCl pH 8, 100 mM NaCl; one-site total binding model; triplicates
Conditions: both partners purified

T1 sequence (O55033 whole entry): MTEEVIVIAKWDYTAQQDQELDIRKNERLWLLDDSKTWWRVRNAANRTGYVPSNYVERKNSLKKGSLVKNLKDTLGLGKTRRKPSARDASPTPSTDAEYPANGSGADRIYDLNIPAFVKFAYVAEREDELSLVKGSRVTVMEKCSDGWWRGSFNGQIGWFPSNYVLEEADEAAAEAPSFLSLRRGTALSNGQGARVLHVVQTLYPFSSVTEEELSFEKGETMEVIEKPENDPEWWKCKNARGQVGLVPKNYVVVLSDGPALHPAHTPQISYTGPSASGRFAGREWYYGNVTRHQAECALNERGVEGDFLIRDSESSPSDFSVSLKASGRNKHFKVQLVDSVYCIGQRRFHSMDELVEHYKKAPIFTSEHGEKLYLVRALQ

B1: Cd3ε peptide (RGQNKERPPPVPNPDY), fluorescein isothiocyanate-conjugated (peptide)
peptide: RGQNKERPPPVPNPDY
modifications: also: fluorescein isothiocyanate-conjugated (position not given here)
notes: peptide of CD3 epsilon, ligand of NCK2 SH3-1; also called CD3Ɛ
binding result: binds

B2: PAK1 peptide (DIQDKPPAPPMRNTST), fluorescein isothiocyanate-conjugated (peptide)
peptide: DIQDKPPAPPMRNTST
modifications: also: fluorescein isothiocyanate-conjugated (position not given here)
notes: peptide of PAK1, ligand of NCK2 SH3-2; also called PAK1 target peptide
binding result: binds

Reference: article PMC7954794, “Protein context shapes the specificity of SH3 domain-mediated interactions in vivo” (Nature Communications, 2021)
